This passage reports Kd, koff and kon results from article PMC4837182, “Plasmodium falciparum Hsp70-z, an Hsp110 homologue, exhibits independent chaperone activity and interacts with Hsp70-1 in a nucleotide-dependent fashion” (Cell Stress & Chaperones, 2016).

For assay [1], the target named is T1, recombinant Plasmodium falciparum Hsp70-z (PfHsp70-z) (Plasmodium falciparum).
T1 construct: also called PfHsp110c; PfHsp110; not shown: His6, N-terminal, kept
As to the kind of experiment: SPR; ProteOn XPR36, ligand amine-coupled to GLC chip, analyte 125-2000 nM at 50 μl/min, PBS-Tween with 20 mM EDTA pH 7.4, 25 °C, Langmuir fit; with 5 mM ATP. The settings on record: both partners purified.

For assay [2], the target named is T1, recombinant Plasmodium falciparum …. Put plainly: SPR; ProteOn XPR36, ligand amine-coupled to GLC chip, analyte 125-2000 nM at 50 μl/min, PBS-Tween with 20 mM EDTA pH 7.4, 25 °C, Langmuir fit; with 5 mM ADP. The conditions noted are these: both partners purified.

B1: nucleotide binding domain of PfHsp70-1 (PfHsp70-1NBD) (domain or fragment)
chain: not shown
modifications: assayed without nucleotide or with ADP/ATP; N-terminal His6 tag from pQE30 left out. Locus PF3D7_0818900 (cytosolic PfHsp70-1, UniProt Q8IB24) is from memory, not given; NBD limits are
With B1, in assay [1], the dissociation constant (Kd) turned out to be 2.12 nM, the off-rate (koff) came to 9.43e-06 s⁻¹ and the kon is 4460 M⁻¹ s⁻¹. For the same molecule, in assay [2], the dissociation constant (Kd) amounted to 98.6 nM, the off-rate (koff) came out at 0.00026 s⁻¹ and the kon is 2630 M⁻¹ s⁻¹.
